Patent US12077763B2, “RNA-based control of powdery mildew” (Greenlight Biosciences, Inc., priority 2021, dated 2024)

Test system: E. necator
Test: Leaf disc assay, dry inoculum (settling tower), decrease in disease severity / hyphal growth (Example 2)
Details: decrease in disease severity (hyphal growth) relative to untreated control, value ± SE; for % decrease =/− SE TP1: time point 1 (untreated control hyphal growth ≥50%); for % decrease =/− SE TP2: time point 2

Molecule | % decrease =/− SE TP1 | % decrease =/− SE TP2
GS3457 (nucleic acid) sense: UCAGGCAAGGGUGGAGUGGGUAAAAGUACAUUUACAACACUGCUUGCACAUGCACUUGCAAAAGACCCGGAAAUUGUGGUUGGUGUCAUGGAUACAGAUAUUUGCGGGCCAAGUAUUCCAAAAAUGAUGGGAGUUGAGGAAGAGAUUAUUCACGUCAGUAAUACAGGAUGGAGUCCAGUUUGGGUACUUGAAAAUCUAGCAGUAAUGAGCGUGCAAUUUAUGCUUCCCAACCGAGAUGAUGCAGUUAUUUGGAGAGGACCAAAGAAAAACGGCCUGAUAAAGCAAUUUUUAAAAGAUGUAGAAUGGGGCGAAAUGGAAUAUUUAUUAGUAGACACUCCACCAGGAACAAGUGAUGAACAUUUGAGUGUCAACACUUUUUUGAAAGAGAGUGGAA antisense: UUCCACUCUCUUUCAAAAAAGUGUUGACACUCAAAUGUUCAUCACUUGUUCCUGGUGGAGUGUCUACUAAUAAAUAUUCCAUUUCGCCCCAUUCUACAUCUUUUAAAAAUUGCUUUAUCAGGCCGUUUUUCUUUGGUCCUCUCCAAAUAACUGCAUCAUCUCGGUUGGGAAGCAUAAAUUGCACGCUCAUUACUGCUAGAUUUUCAAGUACCCAAACUGGACUCCAUCCUGUAUUACUGACGUGAAUAAUCUCUUCCUCAACUCCCAUCAUUUUUGGAAUACUUGGCCCGCAAAUAUCUGUAUCCAUGACACCAACCACAAUUUCCGGGUCUUUUGCAAGUGCAUGUGCAAGCAGUGUUGUAAAUGUACUUUUACCCACUCCACCCUUGCCUGA | 13 ± 4% | –
GS3447 (nucleic acid) sense: CAACAGCUUGAAUUGCACGGAAUUAUCACUAUCAUCCCGACUAAGCCUCUCAAAAAGCAAAAUUUAUUUGCUAGCUCGGAAAAGAUAACAGCUAGCUACGCAAAAGCUAUUCAAGAUGGUUGUUGGCAUUCAUUUUCGCCAAACUCUCAGAAAAGCUGCAACAAAUCCCCGUCAUAUAGAAAACAACUCUAAUCAGCCAGAAACUAUGUUGUCCGGAGAAAAUAUUGGGUUACUUACGGGGCGAACAUCAAACGCCCGCAAAAGUGCGUGGCGACAAAUUUACGAUGUACUCGGAAGCAAACAUUAUUCAGCCGGAAAAGAUAGUGAUAGUAAAAUUGUACGAGCUAUAGCGCCAACUAUUCAGAUUACAAAAAUUACGUUAUACAGUAAUUAUGUC antisense: GACAUAAUUACUGUAUAACGUAAUUUUUGUAAUCUGAAUAGUUGGCGCUAUAGCUCGUACAAUUUUACUAUCACUAUCUUUUCCGGCUGAAUAAUGUUUGCUUCCGAGUACAUCGUAAAUUUGUCGCCACGCACUUUUGCGGGCGUUUGAUGUUCGCCCCGUAAGUAACCCAAUAUUUUCUCCGGACAACAUAGUUUCUGGCUGAUUAGAGUUGUUUUCUAUAUGACGGGGAUUUGUUGCAGCUUUUCUGAGAGUUUGGCGAAAAUGAAUGCCAACAACCAUCUUGAAUAGCUUUUGCGUAGCUAGCUGUUAUCUUUUCCGAGCUAGCAAAUAAAUUUUGCUUUUUGAGAGGCUUAGUCGGGAUGAUAGUGAUAAUUCCGUGCAAUUCAAGCUGUUG | 35 ± 3% | –
GS1806: dsRNA trigger SEQ ID NO 181; gene target Serine/threonine-protein kinase SCH9 (nucleic acid) DNA: GACCAACCACAGCACATTTCAAAGACAAGTACGCCTAATGACCAAAAGTCAACCATCTTAGTATATCCTGTTTCATCTAGGAGAACCTCAGGAGCAAGGTATTCCGTGGTACCACAGAATGTATTTGTCGTCTCATTTTTGGTCAAGTTAGCTTTTGAAAGACCAAAATCACATAAAGCGATATGTCCATTAGCATCGAGCAGAATGTTTTCAGGTTTTAGATCGCGATAAACGATGTCATGTTTGTGAAGGTGCTGGAGAGCCAAAATGAGCTCAGCTATGTAAAATTTTGCTCGCTCTTCACAGAACCTTCCTTCTCTTTGTAAATGCCAAAAAAGTTCGCCTCCAGACATATAATCAGTTACCAAATAGAGATCACTTGGAGTTTGGAATGAAAATTTAAGTCCAACAATGAACTGCGACTCTGCCATAGCTGTTCTGACTAAGATATTTCTTTCGCCAACAGTATGGGCGACCTCTTTCTTTTGTACAATAACCTTTTTCTGAAGGACTTTCATGGCATAAATTCTTCCTGTATCTTTTTTCCTGACTTGATAAACTTGACCAAAAGTTCCTTTTCCTATCAGTTTCAAGAATT | 34 ± 7% | 21 ± 7%
GS1800: dsRNA trigger SEQ ID NO 137; gene target Protein BOB1 (nucleic acid) DNA: ATCAGTCTGACTGCTATACTCACTACCAGAGTCACTGATTACCTGTCTGTCTCTATCGACAATTCCATGAGGTGATTTTAAATGAGTGATATGTTCGTCAATGACACTTAGAGTTTCATTCATTACAGGGCTATCTTGACGATGATTCTTAATATTAACAGACGAGATACTTTTTGATTGAATCGTTGTTTCAGGACTAGTAATCGTTAAGTTTGACGGAGCCTTGATACCCCGGGGCCCAAGAGTTGGTTGTATTTGAGGAGTATCTAACATTTTGAGAGGTTCTGATGGCAAGGAGACCGTATTTTCACCAGAAAAAGGAGTTTGTGGAGAAACTGTGTTGCTAGTTTTCCTTATTTTGGAATGGGAATTTTGAATGGACGATGATGCTGGCGAGCATATTAAAGATCCTCGGGGAGCTATACGTGTGTATACTTCTGGGAAGAGGCCACTCTTTCCATTTAGCAGATGACGGCCTAAAAACCATCCGTCCCCAAAATCATCATCACGTTCTATCAACTCAACGCGATCTCCTTTGGACAAGCTCAACTCATCTGAGCTACGAGCTGAGAAATCATGAACTACAAGCAAAATATGA | 22 ± 6% | 25 ± 8%
GS3454 (nucleic acid) sense: GCUCUUCUCAAUGGAUCCCAAGAUGAUCUAAAUAGAAUCGCAGAACACUUUAAGUUGACAAAGUUGAAAGAGCUCUAUGAAAAACAAUGUCAAGUUUUAAAAAGAUUUGAUAGACCCAAUCCUUCUGUUCCAAUAGCCAUAGCACAUUUAUAUCCUCCAGGCCCUAUAAAUCCACAUUACUCAGCAGCUAUGGCACGAGAAGCUGAGAAAAAAAAUUCAAACCCUCUUAAAAACACUGCAACACAAACUAGUUCUAAGGAGGUUGGCUUAAGUACCAUUAGUAAUAAAAAUUCUCUUAUAAAUUCGAGGCGCUCAAAAGGACAAGAUAUGCCAACUCAGGCUAGCAGUUUGGCAGAAAAAUUUAGUCAAAGUAUGAUGGAUCAGGAGCUUGAUGAUGA antisense: UCAUCAUCAAGCUCCUGAUCCAUCAUACUUUGACUAAAUUUUUCUGCCAAACUGCUAGCCUGAGUUGGCAUAUCUUGUCCUUUUGAGCGCCUCGAAUUUAUAAGAGAAUUUUUAUUACUAAUGGUACUUAAGCCAACCUCCUUAGAACUAGUUUGUGUUGCAGUGUUUUUAAGAGGGUUUGAAUUUUUUUUCUCAGCUUCUCGUGCCAUAGCUGCUGAGUAAUGUGGAUUUAUAGGGCCUGGAGGAUAUAAAUGUGCUAUGGCUAUUGGAACAGAAGGAUUGGGUCUAUCAAAUCUUUUUAAAACUUGACAUUGUUUUUCAUAGAGCUCUUUCAACUUUGUCAACUUAAAGUGUUCUGCGAUUCUAUUUAGAUCAUCUUGGGAUCCAUUGAGAAGAGC | 4 ± 4% | 0 ± 9%
GS3466 (nucleic acid) sense: CACGAAUACGUGUAAUUCCUUCUCUCAUGAUACUUUCUCGUUUCUCACAUUGCUUUUUGAAUUUAGAAAAUGCUAGCGUUUCUAAAUCUUUUUGUUGAGCUUUUAAAUCGUUGAUCAUGGCCAUUUGCUCGUCAAUUUUUACUAAAAAGUCCUUGACAUGCCUAUUUACAUUGAAUACGUUUCUGGUAACCUUGGUUUGAAUAUUUUUUGCUCGAUUUGCAUAACGCAAUGUAUUCUGAGUCUCAUCAAAAUGUGCACUAGACGGACUUACGCAAACAAUCAUUACGGUCUUGCAAUUGCCACCGAGAGAAAACUUUAGCAGUCGAGUUAACUUUGAAUUCCGAUAUGGAACGUGGUUUUUUUUUCGGGGAUCACAAA antisense: UUUGUGAUCCCCGAAAAAAAAACCACGUUCCAUAUCGGAAUUCAAAGUUAACUCGACUGCUAAAGUUUUCUCUCGGUGGCAAUUGCAAGACCGUAAUGAUUGUUUGCGUAAGUCCGUCUAGUGCACAUUUUGAUGAGACUCAGAAUACAUUGCGUUAUGCAAAUCGAGCAAAAAAUAUUCAAACCAAGGUUACCAGAAACGUAUUCAAUGUAAAUAGGCAUGUCAAGGACUUUUUAGUAAAAAUUGACGAGCAAAUGGCCAUGAUCAACGAUUUAAAAGCUCAACAAAAAGAUUUAGAAACGCUAGCAUUUUCUAAAUUCAAAAAGCAAUGUGAGAAACGAGAAAGUAUCAUGAGAGAAGGAAUUACACGUAUUCGUG | 21 ± 7% | 19 ± 11%
GS3448 (nucleic acid) sense: GAAGAUACAAAUUUAUGCGCUAUUCAUGCUAAACGUGUUACUAUAAUGCAAAAAGACAUUCAGCUUGCAAGGCGAAUCAGAGGGGUUUGGGGUGGUUUAGGCUAGCUUUUUUAUUCUAAAUAUACCAGUGCCCGAAUUUGAUCUCCCUAAGCCACACCAUCGAGUUGAAAUGAUGAGAGGAAGAUGACGAGAAUAAAAUUAUUGUGAAUAUUCGUUAUAUGGAUAAGCGUAGAGGGGAUCUAAUACUUGUGAAUUGGUAAUCUUGAGUUAUCACUUUUUCUGGCGCAUCCAGCGACCCUAAGCAUAUGGACACUAGUGAUUGCGUCUUAGGGUUAUAGUAGCCAAGAGGAAUUUGAAGCACACAUAUUAGCACAGCAUAAUAAUAAAUAA antisense: UUAUUUAUUAUUAUGCUGUGCUAAUAUGUGUGCUUCAAAUUCCUCUUGGCUACUAUAACCCUAAGACGCAAUCACUAGUGUCCAUAUGCUUAGGGUCGCUGGAUGCGCCAGAAAAAGUGAUAACUCAAGAUUACCAAUUCACAAGUAUUAGAUCCCCUCUACGCUUAUCCAUAUAACGAAUAUUCACAAUAAUUUUAUUCUCGUCAUCUUCCUCUCAUCAUUUCAACUCGAUGGUGUGGCUUAGGGAGAUCAAAUUCGGGCACUGGUAUAUUUAGAAUAAAAAAGCUAGCCUAAACCACCCCAAACCCCUCUGAUUCGCCUUGCAAGCUGAAUGUCUUUUUGCAUUAUAGUAACACGUUUAGCAUGAAUAGCGCAUAAAUUUGUAUCUUC | 19 ± 3% | –
